This note sets out measurements from patent US20250027068.

Substitutions are numbered along the chain they refer to.

B1: PRT-277 (protein)
chain: MVTSVWTKGVTPPTDFIYGEDVLHAPYKAGQGWYDITKLFNGKDNLLCGAATAGNMLHWWFDQNKEQIENYLKKHPEKQKIIFNNQELFDLKAAIDTKDSQLDSKLFEYFLEKAFPNLSTKHLGVFPDHVIDMFINGYRLSLLNHGPTPVKRGSKDKRGGIFDAVFTRGVQSKLLTNRHDLKNKTLKEISDLIKQELTEGKALGISHTYANGRINHVINLWGADFDAEGNLEAIAVTDSDTNASIGMKKYFVGVNSSGKVAISAKEIEEDNIGAQVLGLFTLSTGQDIWNQTN
B2: PRT-278 (protein)
chain: B1 chain with E108D, L111K, N117Y, L143T, G212V, A235Y, A243P
B3: PRT-40 (protein)
chain: MANQEIRYSEVTPYHVTSVWTKGVTPPANFTQGEDVFHAPYVANQGWYDITKTFNGKDDLLCGAATAGNMLHWWFDQNKDQIKRYLEEHPEKQKINFNGEQMFDVKEAIDTKNHQLDSKLFEYFKEKAFPYLSTKHLGVFPDHVLDMFINGYRLSLTNHGPTPVKEGSKDPRGGIFDAVFTRGDQSKLLTSRHDFKEKNLKEISDLIKKELTEGKALGLSHTYANVRINHVINLWGADFDSNGNLKAIYVTDSDSNASIGMKKYFVGVNSAGKVAISAKEIKEDNIGAQVLGLFTLSTGQDSWNQTN
B4: PRT-601 (protein)
chain: MANQEIRYSEETPSTVTSVWTKGVTPPTDFIQNEDVLHAPYIANQGWYDITKTFNGKDDLLCGAATAGNMLHWWFDQNKEQIKNYLKKHPEKQKINFNGEQMFDVKEAIDTKNHQLDSALFEYFKDKAFPYLSTKHLGVFPDHVIDMFINGYRLSLTNHGPTPVKRGTKDPRGGIFDAVFTRGDQSKLLTSRHDFKEKNLNEISDLIKKELTEGKALGLSHTYANVRINHVINLWGADFNANGNLEAIYVTDSDSNASIGMKKYFVGVNSAGKVAISAKEIKGDNIGAQVLGLFTLSTGQDSWNQTNLEHHHHHH
B5: PRT-529 (protein)
chain: MANQEIRYSEETPKTITSVWTKGVTPPTDFIKNEDVLHAPYIANQGWYDITKTFNGKDDLLCGAATAGNMLHWWFDQNKEEIENYLKKHPEKQKINFNGEQMFDVKEAIDTKDSQTDSALFEYFKDKAFPNLSTKHLGVMPDLVLDMFINGYYLSLGKHGPTPVKRGTKDPRGGIFDAVFTRGDQTKLLTARHDFKEKTLNEISDLIKQELTEGKALALSHTYANVRINHVINLWGADFNSEGNLEAIYVTDSDSNASIGMKKYYVGVNAAGKVAISAKEIEGDNIGAQVLGLFTLSTGQDIWEQTNLEHHHHHH
B6: PRT-2 (protein)
chain: MANQEIRYSEVTPYHVTSVWTKGVTPPAKFTQGEDVFHAPYVANQGWYDITKTFNGKDDLLCGAATAGNMLHWWFDQNKEKIEAYLKKHPDKQKIMFGDQELLDVRKVINTKGDQTNSELFNYFRDKAFPGLSARRIGVMPDLVLDMFINGYYLNVYKTQTTDVNRTYQEKDRRGGIFDAVFTRGDQSKLLTSRHDFKEKNLKEISDLIKKELTEGKALGLSHTYANVRINHVINLWGADFDSNGNLKAIYVTDSDSNASIGMKKYFVGVNSAGKVAISAKEIKEDNIGAQVLGLFTLSTGQDSWNQTN
B7: PRT-285 (protein)
chain: MVTSVWTKGVTPPAKFTQGEDVFHAPYDANQGWYDITKTFNGKDDLLCGAATAGNMLHWWFDQNKEKIEAYLKKHPDKQKIMFGDQELLDVRKVINTKGDQTNSELFNYFRDKAFPGLSARRIGVMPDLVLDMFINGYYLNVYKTQTTDVNRTYQEKDRRGGIFDAVFTRGDQSKLLTSRHDFKEKNLKEISDLIKKELTEGKALGLSHTYANVRISHVINLWGADFDSNGNLKAIYVTDSDSNASIGMKKYGVGVNSAGKVAISAKEIKEDNIGAQVLGLFTLSTGQDSWNQTN
B8: PRT-286 (protein)
chain: B7 chain with G117N, G253F, A259S
B9: PRT-539 (protein)
chain: MANQEIRYSKNENPNVTIKWVHGIGEPTQAEKEKIEFYWYETNTTKFFNNRKVTHLGDSNQCWAKTASNMLHWWFEQNKENINKYIEKKNITGKINFNGEQMFDVKEGIDDNQEKEKSYIANTFRTKKAHNLSTKHKGDYIISGLAWYLYGLNNFKNAHGPTPVKKKPKFYGPALFKDVFNRGDGNTPIKEETDFKEYTKKEFEDILKEALDSKKAIGINIYGSNVGYGHAITLWGAAFDEDNNIIAIYVVDNNFKFENRIFPYGIWYEKEGRPYLFNYEINSFVKNRYVGEITTLDKGEAQWQETNLEHHHHHH
B10: PRT-579 (protein)
chain: MANQEIRYSKATPSHITSVWTKGVTPPENFIYNEDVLHAPYLPNQGWYDITKTFNGKDDLLCGAATAGNMLHWWFDQNKEQIERYLKEHPEKQKINFNGEQMFDVKEAIDTKDSQTNSKLFEYFKDKAFPYLSTKHLGVFPDHVIDMFINGYRLSLTNHGPTPVKEQNKDPRGGIFDAVFTRGDQSKLLTSRHDFKEKTLNEISQLIKQELTEGKALGLSHTYANVRINHVINLWGADFNAEGNLEAIYVTDSDSNASIGMKKYYVGVNSAGKVAISAKEIEGDNIGAQVLGLFTLSTGQDIWQQTNLEHHHHHH
B11: PRT-552 (protein)
chain: MANQEIRYSEETPKTITSVWTKGVTPPTDFIQNEDVLHAPYIANQGWYDITKTFNGKDDLLCGAATAGNMLHWWFDQNKEEIENYLKKHPEKQKINFNGEQMFDVKEAIDTKDSQTDSALFEYFKDKAFPYLSTKHLGVFPDHVIDMFINGYRLSLTNHGPTPVKRGTKDPRGGIFDAVFTRGDQSKLLTARHDFKEKTLNEISDLIKQELTEGKALGLSHTYANVRINHVINLWGADFNSEGNLEAIYVTDSDSNASIGMKKYYVGVNAAGKVAISAKEIEGDNIGAQVLGLFTLSTGQDIWNQTNLEHHHHHH
B12: PRT-546 (protein)
chain: B11 chain with Q32K, A191S, A270S, N304E
B13: PRT-597 (protein)
chain: B11 chain with K14S, E81Q, A191S, S241A, E242N, A270S
B14: PRT-558 (protein)
chain: B11 chain with K14S, V19I, D29Q, E80T, K87T, E122S, S186T, N304Q

This data set deals with pooled human IgG.
Turning to B1, the Enzyme Activity Endpoint Assay: Fab′2 is 19 ng/µL, the Enzyme Activity Endpoint Assay: Fc amounted to 160 ng/µL, the Enzyme Activity Endpoint Assay: IgG turned out to be 401 ng/µL and the Enzyme Activity Endpoint Assay: scIgG was 705 ng/µL.

On to B2, for which the Enzyme Activity Endpoint Assay: Fab′2 amounted to 547 ng/µL, the Enzyme Activity Endpoint Assay: Fc was 315 ng/µL, the Enzyme Activity Endpoint Assay: IgG was 0 ng/µL and the Enzyme Activity Endpoint Assay: scIgG was 0 ng/µL.

B3 had an Enzyme Activity Endpoint Assay: Fab′2 of 42 ng/µL, an Enzyme Activity Endpoint Assay: Fc of 108 ng/µL, an Enzyme Activity Endpoint Assay: IgG of 14 ng/µL and an Enzyme Activity Endpoint Assay: scIgG of 13 ng/µL.

B4: the Enzyme Activity Endpoint Assay: Fab′2 worked out at 720 ng/µL, the Enzyme Activity Endpoint Assay: Fc was determined as 529 ng/µL, the Enzyme Activity Endpoint Assay: IgG worked out at 0 ng/µL and the Enzyme Activity Endpoint Assay: scIgG came to 0 ng/µL.

Protein B5 returned an Enzyme Activity Endpoint Assay: Fab′2 of 0 ng/µL, an Enzyme Activity Endpoint Assay: Fc of 177 ng/µL, an Enzyme Activity Endpoint Assay: IgG of 508 ng/µL and an Enzyme Activity Endpoint Assay: scIgG of 350 ng/µL.

Consider B6, for which the Enzyme Activity Endpoint Assay: Fab′2 worked out at 47 ng/µL, the Enzyme Activity Endpoint Assay: Fc was determined as 94 ng/µL, the Enzyme Activity Endpoint Assay: IgG worked out at 21 ng/µL and the Enzyme Activity Endpoint Assay: scIgG was found to be 0 ng/µL.

On to B7, for which the Enzyme Activity Endpoint Assay: Fab′2 turned out to be 0 ng/µL, the Enzyme Activity Endpoint Assay: Fc was found to be 0 ng/µL, the Enzyme Activity Endpoint Assay: IgG is 1320 ng/µL and the Enzyme Activity Endpoint Assay: scIgG was found to be 0 ng/µL.

With B8, the Enzyme Activity Endpoint Assay: Fab′2 amounted to 650 ng/µL, the Enzyme Activity Endpoint Assay: Fc is 352 ng/µL, the Enzyme Activity Endpoint Assay: IgG was determined as 0 ng/µL and the Enzyme Activity Endpoint Assay: scIgG was 0 ng/µL.

As for B9, the Enzyme Activity Endpoint Assay: Fab′2 was found to be 0 ng/µL, the Enzyme Activity Endpoint Assay: Fc was 0 ng/µL, the Enzyme Activity Endpoint Assay: IgG was found to be 1400 ng/µL and the Enzyme Activity Endpoint Assay: scIgG is 0 ng/µL.

In turn, B10 displayed an Enzyme Activity Endpoint Assay: Fab′2 of 816 ng/µL, an Enzyme Activity Endpoint Assay: Fc of 450 ng/µL, an Enzyme Activity Endpoint Assay: IgG of 0 ng/µL and an Enzyme Activity Endpoint Assay: scIgG of 0 ng/µL.

B11 yielded an Enzyme Activity Endpoint Assay: Fab′2 of 439 ng/µL, an Enzyme Activity Endpoint Assay: Fc of 294 ng/µL, an Enzyme Activity Endpoint Assay: IgG of 45 ng/µL and an Enzyme Activity Endpoint Assay: scIgG of 264 ng/µL.

For the protein B12, the Enzyme Activity Endpoint Assay: Fab′2 was found to be 722 ng/µL, the Enzyme Activity Endpoint Assay: Fc was found to be 390 ng/µL, the Enzyme Activity Endpoint Assay: IgG was 0 ng/µL and the Enzyme Activity Endpoint Assay: scIgG came to 236 ng/µL.

The protein B13 displayed an Enzyme Activity Endpoint Assay: Fab′2 of 603 ng/µL, an Enzyme Activity Endpoint Assay: Fc of 315 ng/µL, an Enzyme Activity Endpoint Assay: IgG of 0 ng/µL and an Enzyme Activity Endpoint Assay: scIgG of 0 ng/µL.

On to B14, for which the Enzyme Activity Endpoint Assay: Fab′2 worked out at 700 ng/µL, the Enzyme Activity Endpoint Assay: Fc is 281 ng/µL, the Enzyme Activity Endpoint Assay: IgG worked out at 0 ng/µL and the Enzyme Activity Endpoint Assay: scIgG is 0 ng/µL.
